The values below come from US20230295310A1 (ABCELLERA BIOLOGICS, published 2023).

This experiment concerns the target human CD3 (human, UniProt P07766 23-207; P04234 22-171; P09693 23-182). Put plainly: cell-based or functional assay.

Numbering of substitutions follows the chain as printed.

Sequence of human CD3 (P07766 23-207, chain 1 of 3): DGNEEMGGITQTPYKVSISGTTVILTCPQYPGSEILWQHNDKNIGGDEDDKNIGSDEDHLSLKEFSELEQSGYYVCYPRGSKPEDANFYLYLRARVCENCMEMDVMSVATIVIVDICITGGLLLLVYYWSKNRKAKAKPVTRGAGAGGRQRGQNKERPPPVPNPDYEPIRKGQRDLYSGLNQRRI
Sequence of human CD3 (P04234 22-171, chain 2 of 3): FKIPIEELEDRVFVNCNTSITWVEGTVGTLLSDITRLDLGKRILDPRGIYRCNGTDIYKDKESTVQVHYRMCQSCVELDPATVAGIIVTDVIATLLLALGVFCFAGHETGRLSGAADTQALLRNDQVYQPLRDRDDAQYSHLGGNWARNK
Sequence of human CD3 (P09693 23-182, chain 3 of 3): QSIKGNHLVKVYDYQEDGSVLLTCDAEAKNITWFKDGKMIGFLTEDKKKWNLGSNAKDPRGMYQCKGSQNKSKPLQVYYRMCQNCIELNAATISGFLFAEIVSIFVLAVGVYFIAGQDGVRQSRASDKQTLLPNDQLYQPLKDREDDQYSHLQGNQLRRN

B1: mAb 146 (antibody, V domains shown)
VH: QVQLVESGGGVVQPGRSLRLSCAASGFTFITYGMHWVRQAPGKGLEWVAVIWYDGSHKYYADSVKGRFTISRDNSKNMLYLQMNSLRVEDTAVYYCARTGITGTTAYFYFDNWGQGTLVTVSS
VL: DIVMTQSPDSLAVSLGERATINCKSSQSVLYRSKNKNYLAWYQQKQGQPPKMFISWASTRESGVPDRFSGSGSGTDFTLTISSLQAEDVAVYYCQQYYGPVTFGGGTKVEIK
Consider B1, for which the “CD4 EC50 (nM); CD69/CD25 on human T cells, plate-coated antibody” value (“CD4 EC50 (nM); CD69/CD25” below) turned out to be 12.5 nM and the “CD8 EC50 (nM); CD69/CD25 on human T cells, plate-coated antibody” value (“CD8 EC50 (nM); CD69/CD25” below) stood at 12.6 nM.

B2: mAb 153 (antibody, V domains shown)
VH: B1 VH with I30S, A61S, M78T, V93I, N112S
VL: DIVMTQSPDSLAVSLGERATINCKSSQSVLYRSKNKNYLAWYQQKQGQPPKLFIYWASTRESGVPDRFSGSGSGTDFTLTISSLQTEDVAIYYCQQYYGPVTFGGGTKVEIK
For B2, the “CD4 EC50 (nM); CD69/CD25” value was 8.76 nM and the “CD8 EC50 (nM); CD69/CD25” value was 8.56 nM.

B3: mAb 174 (antibody, V domains shown)
VH: EVQLVESGGGLVQPGGSLRLSCAASGFTFSSNWMSWVRQAPGKGLEWVANIKQDGSEKYSVDSVKGRFTISRDNAKNSLYLQMNSLRAEDTAVYYCARDRSRNYYWYFDLWGRGTLVTVSS
VL: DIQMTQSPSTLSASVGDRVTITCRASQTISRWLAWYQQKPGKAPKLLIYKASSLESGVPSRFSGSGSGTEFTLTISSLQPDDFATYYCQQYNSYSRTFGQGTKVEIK
For the molecule B3, the “CD4 EC50 (nM); CD69/CD25” value is 19.5 nM and the “CD8 EC50 (nM); CD69/CD25” value worked out at 19.4 nM.

B4: mAb 158 (antibody, V domains shown)
VH: EVQLVESGGGLVQPGRSLRLSCAASGFTFADYTMHWVRQVPGKGLEWVSGISWNSGSVDYADSVKGRFTISRDNAKKTLYLQMNSLRAEDTALYYCAKDSSGYGHYYFYYLDVWGKGTTVTVSS
VL: EIVMTQSPATLSVSPGERATLSCRATQSVSSNLAWYQQKPGQAPRLLIYSTSTRATGIPARFSGSRSGTEFTLTISSLQSEDSAVYYCQQYNNWPHFGQGTRLEIK
In the case of B4, the “CD4 EC50 (nM); CD69/CD25” value came out at 6.67 nM and the “CD8 EC50 (nM); CD69/CD25” value stood at 6.62 nM.

B5: mAb 171 (antibody, V domains shown)
VH: B4 VH with V40A, K43Q, V58I, T69I
VL: B4 VL with T26S
Consider B5, for which the “CD4 EC50 (nM); CD69/CD25” value was found to be 6.86 nM and the “CD8 EC50 (nM); CD69/CD25” value was 6.71 nM.

B6: mAb 160 (antibody, V domains shown)
VH: B4 VH with A24V, A30N, V58I, D59G, K77N, T78S, Y95F, F108Y, L111M, K116R
VL: B4 VL with T26S, S30R, S31K, S50G, T51A, R66G, S83F, Q90L
For B6, the “CD4 EC50 (nM); CD69/CD25” value was determined as 6.95 nM and the “CD8 EC50 (nM); CD69/CD25” value came to 8.47 nM.

B7: mAb 161 (antibody, V domains shown)
VH: B4 VH with F27I, V40A, V58I, S85R
VL: B4 VL with T26S, S31N
For the molecule B7, the “CD4 EC50 (nM); CD69/CD25” value was 6.76 nM and the “CD8 EC50 (nM); CD69/CD25” value turned out to be 7.89 nM.

B8: mAb 159 (antibody, V domains shown)
VH: B4 VH with A30N, D31G, D59G, K77N, T78S, Y80F, F108Y, L111M
VL: B4 VL with T26S, S30R, S31N, S50G, T51A, R66G, S83F, V85L, Q90L
B8: the “CD4 EC50 (nM); CD69/CD25” value came to 12 nM and the “CD8 EC50 (nM); CD69/CD25” value is 11.9 nM.

B9: mAb 162 (antibody, V domains shown)
VH: EVQLVESGGGLVQPGRSLRLSCAASGFTFDNYAMHWVRQAPGKGLEWVSGISWNSGSIGYADSVKGRFTISRDNAKNSLYLELNSLRAEDTALYYCAKDSSGYGYYYNYYMDVWGKGTTVTVSS
VL: B4 VL with T26S, S30R, S50G, T51A, R61K, R66G, S83F, Q90Y, N92Y
For B9, the “CD4 EC50 (nM); CD69/CD25” value turned out to be 12.6 nM and the “CD8 EC50 (nM); CD69/CD25” value stood at 12.7 nM.

B10: mAb 173 (antibody, V domains shown)
VH: B4 VH with A30D, G50D, D59G, K77N, T78S, A97V, Y107F, F108H, L111M
VL: DIQMTQSPSSLSASVGDRVTITCRASQSISNYLNWYQVKPGKAPKVLIYAASSLQSGVPSRFSGSGSGTDFTLTISSLQPEDFVSYYCHQSYNTPITFGQGTRLEIK
Take B10: the “CD4 EC50 (nM); CD69/CD25” value came out at 12.5 nM and the “CD8 EC50 (nM); CD69/CD25” value amounted to 12.3 nM.

B11: mAb 172 (antibody, V domains shown)
V domain 1: EVQLVESGGGLVQPGRSLRLSCTTSGFTFDDYTMHWVRQVPGKGLEWVSDISWNSGSVGYADSVKGRFTISRDNAKNSLYLQMNSLRAEDTALYYCVKDSSGYGHYFHYYMDVWGKGTTVTVSS
V domain 2: B11 V domain 1
As for B11, the “CD4 EC50 (nM); CD69/CD25” value amounted to 23.2 nM and the “CD8 EC50 (nM); CD69/CD25” value is 22.9 nM.

B12: mAb 155 (antibody, V domains shown)
VH: EVQLVESGGGLVKTGGSLRLSCVASGFSFKKAWMNWVRQAPGKGLEWVGRIKRNTDGGTADYAAPVKGRFTLSRDDSKKTLFLQMNSLKTEDTAVYYCTTLDSSSYYVGYYYMDVWGKGTTVTVSS
VL: DIQMTQSPSSVSASVGDRVIITCRASQDINNWLAWYQQKPGKAPKLLIYTASSLQSGVPSRFSGSGSGTDFTLTIGSLQPEDFATYYCQQAHSLPISFGQGTRLDIK
On to B12, for which the “CD4 EC50 (nM); CD69/CD25” value was 6.25 nM and the “CD8 EC50 (nM); CD69/CD25” value was found to be 6.29 nM.

B13: mAb 169 (antibody, V domains shown)
VH: B12 VH
VL: B12 VL with T72I, S97T, D105E
Consider B13, for which the “CD4 EC50 (nM); CD69/CD25” value was determined as 6.49 nM and the “CD8 EC50 (nM); CD69/CD25” value stood at 6.67 nM.

B14: mAb 157 (antibody, V domains shown)
VH: B12 VH with N54T, T55A, T59A, A60T, K79N, F82Y, Y106W
VL: B12 VL with Q3H, S7A, I20T, I21F, G76S, S97T, D105G
Turning to B14, the “CD4 EC50 (nM); CD69/CD25” value is 6.42 nM and the “CD8 EC50 (nM); CD69/CD25” value is 6.57 nM.

B15: mAb 163 (antibody, V domains shown)
VH: B12 VH with A40V
VL: B12 VL with S97T, D105E
For B15, the “CD4 EC50 (nM); CD69/CD25” value came to 6.3 nM and the “CD8 EC50 (nM); CD69/CD25” value was found to be 6.99 nM.

B16: mAb 166 (antibody, V domains shown)
VH: B12 VH with K43R, A60T, K79N, T80M, F82Y, Y106L
VL: B12 VL with I20T, G76S, Y87F, S97T, D105E, K107T
With B16, the “CD4 EC50 (nM); CD69/CD25” value amounted to 10.5 nM and the “CD8 EC50 (nM); CD69/CD25” value amounted to 10.6 nM.

B17: mAb 156 (antibody, V domains shown)
VH: B12 VH
VL: B12 VL with P40A, S97T, D105E
As for B17, the “CD4 EC50 (nM); CD69/CD25” value amounted to 6.25 nM and the “CD8 EC50 (nM); CD69/CD25” value came to 6.25 nM.

B18: mAb 164 (antibody, V domains shown)
VH: B12 VH
VL: B12 VL with I20T, N30K, S97T, D105E
Consider B18, for which the “CD4 EC50 (nM); CD69/CD25” value turned out to be 6.84 nM and the “CD8 EC50 (nM); CD69/CD25” value was 6.62 nM.

B19: mAb 165 (antibody, V domains shown)
VH: B12 VH with K79R, F82Y, Y106R
VL: B12 VL with A43V, S97T, D105E
Regarding B19, the “CD4 EC50 (nM); CD69/CD25” value was found to be 6.48 nM and the “CD8 EC50 (nM); CD69/CD25” value was found to be 6.57 nM.

B20: mAb 170 (antibody, V domains shown)
VH: B9 VH with Q13R, N31D, A33T, E82Q, L83M, A97S, Y107L, Y110S, M111L
VL: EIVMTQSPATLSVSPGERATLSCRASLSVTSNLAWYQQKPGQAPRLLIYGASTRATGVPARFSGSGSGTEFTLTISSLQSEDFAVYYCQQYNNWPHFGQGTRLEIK
On to B20, for which the “CD4 EC50 (nM); CD69/CD25” value turned out to be 14.6 nM and the “CD8 EC50 (nM); CD69/CD25” value was determined as 15.1 nM.

B21: mAb 167 (antibody, V domains shown)
VH: B9 VH with Q3H, N31D, S57T, L83M, Y105H, N108H, M111I, K116T
VL: EIVMTQSPATLSVSPGGRATLSCRASQSVGSNLAWYQQKPGQAPRLLIYDASTRATGIPARFRGSGSGTEFTLTISGLQSEDFAVYYCQLYYNWPHFGQGTRLEIK
Regarding B21, the “CD4 EC50 (nM); CD69/CD25” value was 6.3 nM and the “CD8 EC50 (nM); CD69/CD25” value came out at 6.36 nM.

B22: mAb 52 (antibody, V domains shown)
VH: QVQLVQSGAEVKKPGASVKVSCKASGYTFTSHDINWVRQATGQGLEWMGWLNPNSGKTGYAQKFQGRVTMARDTSMYTADMELSSLRFEDTAVYYCARVGHYDMWPGFFSFDYWGQGTLVTVSS
VL: DIQMTQSPSSLSASVGDRIIITCRASQDIRNDLGWYQQKPGKAPKRLIYAASSLQSGVPSRFSGSRSGTEFTLTISSLHPEDFATYYCLQHRSYPYTFGQGTNLEIK
For B22, the “CD4 EC50 (nM); CD69/CD25” value was determined as 8.79 nM and the “CD8 EC50 (nM); CD69/CD25” value came to 9.48 nM.

B23: mAb 53 (antibody, V domains shown)
VH: QVQLVQSGAEVKKPGASVKVSCKASGYTFTSYDINWVRQATGQGLEWMGWMNPKSGKTGYAQKFQGRITMTRNTPISTVYMDLSSLRSEDTAVYYCAREGHYDFWTGYYSFDYWGQGTLVTVSS
VL: B22 VL with I19V, I20T, D28G, K39T, R66G, H79Q, R92Y, N103K
As for B23, the “CD4 EC50 (nM); CD69/CD25” value was 18.3 nM and the “CD8 EC50 (nM); CD69/CD25” value came out at 18.3 nM.
